According to patent US5472841:

Molecular target: T1, Human neutrophil elastase (Homo sapiens) (UniProt P08246)
T1 sequence: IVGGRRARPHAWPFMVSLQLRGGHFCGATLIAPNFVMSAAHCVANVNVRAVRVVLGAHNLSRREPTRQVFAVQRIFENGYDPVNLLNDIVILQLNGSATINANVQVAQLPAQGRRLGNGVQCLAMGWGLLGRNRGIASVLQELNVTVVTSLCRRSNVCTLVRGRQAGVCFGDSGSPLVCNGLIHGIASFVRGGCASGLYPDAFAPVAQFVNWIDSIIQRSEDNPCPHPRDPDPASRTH
Assay: filter
Details: apparent Kd

## CCCCTGCAGGTGATTTTGCTCAAGTNNNNNNNNNNNNNNNNNNNNNNNNNNNNNNNNNNNNNNNNAGTATCGCTAATCAGGCGGATC [random ssDNA pool]
  Kd: 250 nM
